Test results taken from the DeepSol protein solubility set.

assay: soluble on expression in E. coli; label from the status in PepcDB or PDB records

Sequence	soluble on expression in E. coli
MIAIISLPGISMASSKSLQQAIANIKIWHKGEQRAPHKPLLLLYVLAGYLNGHPRLFDYGTEIYEPLHSLLERFGPQRSQYRPDMPFWRLQGDGIWQLHNAERCSTAGSSRQPPVKELNEYHVAGGFDEQHYALVTGNKKLINTLAQQILEAHFTESIQEEIADELGFDLQQTRKQRDPLFRKNVLRAYNYQCAICGFNMRHDDTTVALEAAHIKWKQHGGPCEIPNGLALCAIHHKAFDKGSIGLDENMRVLVSDAVNGGGIVERLFWDFDGKTIALPQVRKNYPYEGFVGER	not soluble
MGSDKIHHHHHHMRNWLLPEYIEDVLPRDAYRIEKIRRLIMDMLFAHGYQFVMPPLLEYVESLLAGSGSGMNLRMFKVVDQLSGRMMGLRADMTPQAARIDAHLLNISGVTRLCYASSVVHTVPDEITRTREPFQVGAELYGHSGIESDLEIQCLLLECLSVSGIHSIHLDLGHIRVFRSLIRDSGIKPEFEMELYAALWAKDISSLKELVRTGLNKRLTRSVQNALLLLPELYGDGTVLLSARQHLPDFPEIGEALDQLEHVARILQPYVDRITFDLADLRGYHYHTGMVFAVYTPGCPAPIALGGRYDEIGKSFGRARPATGFSLDLKQLSQLTDMNGYPSGILAPWKPEDEKLAAMVRQLRAEGHIVVTELPGEENQEVTGCDRKLVFRNGNWEIDPVTG	not soluble
MTVFRQENVDDYYDTGEELGSGQFAVVKKCREKSTGLQYAAKFIKKRRTKSSRRGVSREDIEREVSILKEIQHPNVITLHEVYENKTDVILILELVAGGELFDFLAEKESLTEEEATEFLKQILNGVYYLHSLQIAHFDLKPENIMLLDRNVPKPRIKIIDFGLAHKIDFGNEFKNIFGTPEFVAPEIVNYEPLGLEADMWSIGVITYILLSGASPFLGDTKQETLANVSAVNYEFEDEYFSNTSALAKDFIRRLLVKDPKKRMTIQDSLQHPWIKPKDTQQALSRKASAVNMEKFKKFAARKKWKQSVRLISLCQRLSRSFLSRSNMSVARSD	soluble
MKKKLLAGAITLLSVATLAACSKGSEGADLISMKGDVITEHQFYEQVKSNPSAQQVLLNMTIQKVFEKQYGSELDDKEVDDTIAEEKKQYGENYQRVLSQAGMTLETRKAQIRTSKLVELAVKKVAEAELTDEAYKKAFDEYTPDVTAQIIRLNNEDKAKEVLEKAKAEGADFAQLAKDNSTDEKTKENGGEITFDSASTEVPEQVKKAAFALDVDGVSDVITATGTQAYSSQYYIVKLTKKTEKSSNIDDYKEKLKTVILTQKQNDSTFVQSIIGKELQAANIKVKDQAFQNIFTQYIGGGDSSSSSSTSNE	soluble
MAHHHHHHMNPHQVNPSDQIAELVVESPHFSFNCAHFIAFKGFRETLHGHNYNVSLKLRGYIQQDGYVIDFSILKEKLKRVCKQLDHHFILPMYSDVLNIQMLEDNFKIICEDKSEYSFPKRDCVQIPIKHSSTEEIGLYILNKIIEELGLPFLKARSVNYMEVTVSESPTQKATVHRNI	not soluble
MSKCSADETPVCCCMDVGTIMDNSDCTASYSRVFATRAEAEETLAALTEKARSVESEPCQITPTFTEESEGVRLDIDFVFACEAETLIFQLGLRLEHHHHHH	not soluble
MLNSNNHQTEWKWPRLIQIMEIGNSAMKNTMSKTLYMSYNFIARTSGKTYHAPVLVVDCSVNEGWLWMRICHNCLGCLCTGYWAAQRTFATTTGLRLVWL	soluble
MGSDKIHHHHHHMWFCFLKSGFIIIKQILSTPFFSYKYNIKILINFKLISNIIEHKMLEYANKITLKGDNIMKFAVITDIHGNFDALQTVLDDIDSRDDIEKIYNLGDNIGIGHETNKVLDTIFDRDDMEMIAGNHDEAIMSLVNGTPYPEDLKGKFYEHHQWIEGHLDESYYDEINQLPRYIEMTIKGKKILFIHYEIENDKMSAPIDEQPFAPITKDDEQAISELFKDKEADLILFGHNHRLHMFDDKSTVYFNPGSVGLNNGSNTVYGIITVNEKGISVERVKLAYNNEEFLAGFEEKQVPAREFIFKNFI	not soluble
MSDCNWTNPLCNTSLLLASGYALWSCASKKNKKETKTETKKSHDCPPQTIEPVKDEKNSNSEEKKTTSSNNEVPPQKKLIGNDEVKKEKKKSEDDLLDVKKTASKEDDKKRMDKKDPSKKLSKEKLREEKKEQSKKVNKEKKMNKSESVDEDNEQPPEPGSDPRKIWAFKAAKMKCQAISKLHQDKIKGYMPPNCTYTAYDANPDLNRYADVRCIEETRVVLKNHDRDYIHASWMRMPGKDQSTYITTQGPLPETLSDFWHMIYQEKIAYVLMLCTLFEGGVEKCALYYPEKLGEVVKFGKYEITLTECKEEAIAGTIWNALTVTNTEDASSEPLYMNHVQVPWWPDQLAPEDARPMIELYKWVKKVNPKETPICVHCSAGVGRTATFVGIDYATIRIMENPNIEMLDIVREMRAMRFQAVQSHMQFLFLYVVLMEYFIGEGVVERTGRVDTFMTQYKKHAQKKLAKRAAQNQQGEKLAAEEKEKDKVKV	soluble
MKSYTKHTHTNRLASESSPYLLQHAHNPVEWFPWGEEALQKAKAEDKPILVSIGYSACHWCHVMEHECFEKEEVAAVMNDLFINIKIDREERPDLDQIYMDAVSAMGLRGGWPLNVFLTPDAKPFYGGTYFPQDHWLNLLGQISNAYLNHREDILKSAESFTESLNQSDVF	not soluble
ASNVHRVQQVIHAAIATNRKLAVAGRSMVKVVSIAERLGYLEAPDDLFIDIEEVSKYDDERVAIITTGSQGEPMSALSRMAKGAHRQITITENDTVIIAATPIPGNERSVSTIVDLLHRIGADVIFGHGKVHASGHGSAEELKLMLNLMRPKFFVPIHGEFRMQHAHKELAKSVGIREEAIFLVDKGEVVEFRNGQGRKAGKVPSGNVLIDGLGVGDVGNIVLRDRRLLSKDGILVVVVTLNKQSGTILSGPNIISRGFVYVRESEKLIEEANELVTETLKKCVTENVNEWSSLKSNVREVLSRFLFEKTKRRPMILPIIME	soluble
MAHHHHHHMEAGTSPIRAGSSDGGGSVRGDIFRRHSVNSGENNMNDNKDNDSNTEWSEQFRLIARRMSRALLRNPHPDVQTDKRVMYGVLYELFEQWSERQQRAHSVSLTVEQVGSILRYGEQTLRQASLTAPALNKAQVVVDLIAASPLITIGALTQELRGLQPPVVLTPMAEVLELARLLDVSQGVRTPVGAVNLVHFIALSSTLCPAPDMGALLLLVASNVKRCHLLCAAIYYEWAMIDAQNREGLLLLSRELEEKHQQMCEGFTVDILTPLLTGSFEPFGARPTDPVAVDYLGMGSLPCTGTAEEQQRCHQLAPPSGNELEPTCEDSDTGGHGEGDCESSVEDEYDSDCRDTVDTEFWLRLSS	not soluble
MGSDKIHHHHHHMKGVTLRGLEVFEALSRTGSVAQASTLTGLSQPAVSQQLRNLEQALGTDLVDHGRRPMVLTPAGRAFLPRAETVLSQLRLAQSELTVMDLTHLSTLSMGLIDDFDNDLTPRLATLLADSLTKCRFKLITAPSHEISEAMKARRLHIAVAATSGEVHDGIIEYPLVRDPFILVAPRGVVSKGGDMLASLQGLPLLRYAREQLIGRQIEAHLARQKLDFEERFEIGSHLALMAMVARRLGWAVTTPLGFMRAERFHDEVEAFALPFAAFSRRISLFAGADWADRVPRDVAETMRRLVQSQIIDPAVARLPWLGGELRVIES	not soluble
MIETLEENLEKVFKAIRSLIIEDMAKDMPMLALTLELLQSIPGIGLISAVTILAEIGDFSAFSKPGKLVAYFGIDPSVMQSGEFTGTQNKMSKRGSRLLRRVLFTIALANIRTKRDKTACNPVLMEYYKNKCQSKPKKVALGAVMRKLVNYIFAVLRDRKPYELRSPQEHAQMLAAKHTAA	not soluble
MAISIKTPEDIEKMRVAGRLAAEVLEMIEPYVKPGVSTGELDRICNDYIVNEQHAVSACLGYHGYPKSVCISINEVVCHGIPDDAKLLKDGDIVNIDVTVIKDGFHGDTSKMFIVGKPTIMGERLCRITQESLYLALRMVKPGINLREIGAAIQKFVEAEGFSVVREYCGHGIGQGFHEEPQVLHYDSRETNVVLKPGMTFTIEPMVNAGKKEIRTMKDGWTVKTKDRSLSAQYEHTIVVTDNGCEILTLRKDDTIPAIISHDELVPRGSLEHHHHHH	soluble
PHMQPFDSGHDDLVHDVVYDFYGRHVATCSSDQHIKVFKLDKDTSNWELSDSWRAHDSSIVAIDWASPEYGRIIASASYDKTVKLWEEDPDQEECSGRRWNKLCTLNDSKGSLYSVKFAPAHLGLKLACLGNDGILRLYDALEPSDLRSWTLTSEMKVLSIPPANHLQSDFCLSWCPSRFSPEKLAVSALEQAIIYQRGKDGKLHVAAKLPGHKSLIRSISWAPSIGRWYQLIATGCKDGRIRIFKITEKLSPLASEESLTNSNMFDNSADVDMDAQGRSDSNTEEKAELQSNLQVELLSEHDDHNGEVWSVSWNLTGTILSSAGDDGKVRLWKATYSNEFKCMSVITAQQ	soluble
MLRTYFPEVVLFLHAFPLNKEMYRYQFCAFEEEGIPYVALDYPGFGDAPNLPGEYTVERLTDYVVNELRKFRVKKVIPIGDSMGGYIMFDMWRRYREMIKGFVFVATRAEADTEEGKKARYALIEKVQKEGKEFLIEAMLENQTSPATKKDENKMRTLRCIMEKATREGIVKTLKALAERKDNTDLLPSIDVPTLVIAGKDDERVTPPEIVKKIAEGIKGAKYYELENSAHLPPFENPEKFNEVVIPFVKDLLKTP	soluble
MVRTAPDPAMVQRSHQKPSLVMTTHSMLIPMVDTLLELPARTLTDGTSTPKHQQLREILEELCRTQLKPGDMLPGERALEEQYGVSRITVRRAIGDLVATGQLRRSRGKGTFVAQAPMITRLQLASFSDEMAARKIEASSKILASSWSSPSAVVHEFFGTEQGTPHTHLVRVRLGGGKPFCINDAWYNSAIAPDLLENDVYKSVYSILEQNYGASITGAEQITTAVAATPETARILGVDVGEPLLKVERHAHAGENPIEWCSSLYRTDRFALRTFITK	not soluble
MTAPGSMPLTVIGGFLGAGKTTLLNYLLKVQHSERVLVMVNDFGSINIDAELLDQGRHDRPGVVRLQNGCVCCSIGGDLMQAFLQVMSMPDRPDRIIVEASGVADPTRIAQIGRVSGGLSDEGVITLVDASAVRTLAADKYVGDIVRQQILSADIVLLNKLDLSSDAEIVETRAWLRDLAPRTRVVSCIHGEVDAVSVLGIGAGKVAPDAAGGPVDVPVPDLRRASTRHADTFHSSTLATAHRFDRRRIEYALDALPQTVLRGKGFVELEGEATPALLQLCGSRWTLDPVSTPAPPAGTHLVFIATGGRGVPRFDAPSHFEQALASRDAASADTSNLEHHHHHH	soluble
MSLEPIGNVIKKIVKERNLGSKEDILNQVLQDPDINAFLQANKAKIDQKMIKNSMSGLYEFYSQKRNPSKVMAGYAPQLFLNGKVIDVRYAPTQAKVAQDRKRAAKKRLHLIDLPGRLHDVELSKIDITDDRNQVLTLIYDFLNKYSKDSHQQGLYLSGDFGVGKTYILAGLANYVVTNMEKDVVFLHVPTFIAGLASHFGDNSLQDEIRRLSECDLLILDDIGAETLSQWSRDDVLGVILQARMDNVLPTFFSSNLDMEALESHFEETRNATDPVKARRLMQRIRFLAKEVVVSGPDRRNSLREGHHHHHH	soluble
MKGMKYHDYIWDLGGTLLDNYETSTAAFVETLALYGITQDHDSVYQALKVSTPFAIETFAPNLENFLEKYKENEARELEHPILFEGVSDLLEDISNQGGRHFLVSHRNDQVLEILEKTSIAAYFTEVVTSSSGFKRKPNPESMLYLREKYQISSGLVIGDRPIDIEAGQAAGLDTHLFTSIVNLRQVLDI	soluble
MPRTHGYAPIGKRCHGKCNWHARGRINVIGALIGKCLLTVGLFKNNIDADTFLGWTIHDLLPKLPPASIVVMDNATFRKRQDIQNVITRGGHTLEYLPAYSPDLNPIEHKWAQTKAVRKQQNQTVEQLFKIESFYVT	not soluble
